Residue numbers refer to the chain shown, from its start.

For this test, the target named is chicken PHT1 (purified, wild type) (chicken).
chicken PHT1 (purified, wild type) (chicken), sequence (chain, as listed by the source): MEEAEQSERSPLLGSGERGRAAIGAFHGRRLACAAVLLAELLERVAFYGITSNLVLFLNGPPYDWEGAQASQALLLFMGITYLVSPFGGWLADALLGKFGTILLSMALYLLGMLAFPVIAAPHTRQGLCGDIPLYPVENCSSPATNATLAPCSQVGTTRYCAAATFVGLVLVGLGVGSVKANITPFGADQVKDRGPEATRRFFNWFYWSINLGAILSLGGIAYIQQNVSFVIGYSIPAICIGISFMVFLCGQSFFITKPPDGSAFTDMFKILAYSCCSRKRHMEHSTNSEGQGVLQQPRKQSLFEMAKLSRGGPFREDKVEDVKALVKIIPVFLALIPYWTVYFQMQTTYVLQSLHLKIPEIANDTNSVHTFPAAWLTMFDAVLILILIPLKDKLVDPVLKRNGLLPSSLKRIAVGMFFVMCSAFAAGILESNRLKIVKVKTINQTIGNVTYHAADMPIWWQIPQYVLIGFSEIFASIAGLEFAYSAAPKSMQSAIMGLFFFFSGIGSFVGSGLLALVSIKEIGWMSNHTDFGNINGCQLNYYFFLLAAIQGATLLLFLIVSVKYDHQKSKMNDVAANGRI

B1: 23 [Sybody 23] (VHH)
VHH: QVQLVESGGGSAQAGGSLRLSCAASGNIAHIYYLGWFRQAPGKEREGVAALMTFTGWTYYADSVKGRFTVSLDNAKNTVYLQMNSLKPEDTALYYCAAATHGNWNPLQSDRYQYWGQGTQVTVSA
Take B1: the binding result is recorded as “binds”.

B2: 48 [Sybody 48] (VHH)
VHH: QVQLVESGGGLVQAGGSLRLSCAASGFPVRWHYMYWYRQAPGKEREWVAAISSHGTYTYYADSVKGRFTISRDNAKNTVYLQMNSLKPEDTAVYYCSVKDIGRWFSKYDYWGQGTQVTVSA
Regarding B2, the binding result is on record as “binds”.

B3: 80 (VHH)
VHH: QVQLVESGGGSVQAGGSLRLSCAASGSISSITYLGWFRQAPGKEREGVAALFTWWGWTYYADSVKGRFTVSLDNAKNTVYLQMNSLKPEDTALYYCAAASEGMYWPLTKNHYSYWGQGTQVTVSA
Consider B3, for which the binding result is reported as “binds”.

B4: 94 (VHH)
VHH: QVQLVESGGGLVQAGGSLRLSCAASGFPVYKASMYWYRQAPGKEREWVAAINSKGWWTEYADSVKGRFTISRDNAKNTVYLQMNSLKPEDTAVYYCNVKDYGYEQLWYDYWGQGTQVTVSA
Consider B4, for which the binding result is reported as “binds”.

B5: 1 [Sybody 1] (VHH)
VHH: QVQLVESGGGLVQAGGSLRLSCAASGFPVYSRHMYWYRQAPGKEREWVAAIASQGMKTWYADSVKGRFTISRDNAKNTVYLQMNSLKPEDTAVYYCNVKDTGQWWGLYDYWGQGTQVTVSA
As to B5, the binding result is on record as “binds”.

B6: 31 [Sybody 31] (VHH)
VHH: QVQLVESGGGLVQAGGSLRLSCAASGFPVSQNWMWWYRQAPGKEREWVAAISSKGQTTHYADSVKGRFTISRDNAKNTVYLQMNSLKPEDTAVYYCNVKDWGAYWYSYDYWGQGTQVTVSA
For the molecule B6, the binding result is recorded as “binds”.

B7: 6 [Sybody 6] (VHH)
VHH: QVQLVESGGGLVQAGGSLRLSCAASGFPVYATWMYWYRQAPGKEREWVAAISSTGWSTYYADSVKGRFTISRDNAKNTVYLQMNSLKPEDTAVYYCNVKDVGFWWDQYDYWGQGTQVTVSA
In the case of B7, the binding result was “binds”.

B8: 25 [Sybody 25] (VHH)
VHH: QVQLVESGGGSVQAGGSLRLSCAASGNIWDIRYLGWFRQAPGKEREGVAALETQYGYTYYADSVKGRFTVSLDNAKNTVYLQMNSLKPEDTALYYCAAADIGYYTPLIHVGWYSYWGQGTQVTVSA
B8: the binding result is “binds”.

B9: 55 (VHH)
VHH: QVQLVESGGGLVQAGGSLRLSCAASGFPVAARWMRWYRQAPGKEREWVAAINSFGDYTEYADSVKGRFTISRDNAKNTVYLQMNSLKPEDTAVYYCNVKDYGSQWWAYDYWGQGTQVTVSA
Regarding B9, the binding result is on record as “binds”.

B10: 58 (VHH)
VHH: B9 VHH with A30W, A31T, F54Y, K99R, Y101N, S103A, Q104Y, W106H, A107Y
For the molecule B10, the binding result is reported as “binds”.

B11: 57 (VHH)
VHH: B9 VHH with A30K, A31Q, R32K, F54N, K99R, S103D, W105L, W106F, A107E
In the case of B11, the binding result is recorded as “binds”.

B12: 20 [Sybody 20] (VHH)
VHH: QVQLVESGGGSVQAGGSLRLSCAASGNIWTIRYLGWFRQAPGKEREGVAALDTASGSTYYADSVKGRFTVSLDNAKNTVYLQMNSLKPEDTALYYCAAAWWGYTVPLMWQHYYYWGQGTQVTVSA
As to B12, the binding result was “binds”.

B13: 89 (VHH)
VHH: QVQLVESGGGLVQAGGSLRLSCAASGFSVNYSYMYWYRQAPGKEREWVAAISSWGWYTVYADSVKGRFTISRDNAKNTVYLQMNSLKPEDTAVYYCNVKDRGNDDSSYDYWGQGTQVTVSA
As to B13, the binding result is given as “binds”.

B14: 30 [Sybody 30] (VHH)
VHH: QVQLVESGGGLVQAGGSLRLSCAASGFPVKSRRMYWYRQARGKEREWVAAIYSWGATTVYADSVKGRFTISRDNAKNTVYLQMNSLKPEDTAIYYCNVKDWGSWYQYYDYWGQGTQVTVSA
Turning to B14, the binding result is recorded as “binds”.

B15: 66 (VHH)
VHH: QVQLVESGGGLVQAGGSLRLSCAASGFPVDTSYMYWYRQAPGKEREWVAAIWSWGQWTYYADSVKGRFTISRDNAKNTVYLQMNSLKPEDTAVYYCAVYVGQYYIGQGTQVTVSA
As to B15, the binding result is “binds”.

B16: 2 [Sybody 2] (VHH)
VHH: QVQLVESGGGLVQAGGSLRLSCAASGFPVNTRTMHWYRQAPGKEREWVAAIYSSGQNTFYADSVKGRFTISRDNAKNTVYLQMNSLKPEDTAVYYCNVKDWGNIWEYDYWGQGTQVTVSA
With B16, the binding result is recorded as “binds”.

B17: 100 (VHH)
VHH: QVQLVESGGGLVQAGGSLRLSCAASGFPVAQRVMHWYRQAPGKEREWVAAIHSAGAQTFYADSVKGRFTISRDNAKNTVYLQMNSLKPEDTAVYYCNVKDDGKYYWLYDYWGQGTQVTVSA
Take B17: the binding result is reported as “binds”.

B18: 87 (VHH)
VHH: QVQLVESGGGLVQAGGSLRLSCAASGFPVVHLSMAWYRQAPGKEREWVAAINSFGDHTHYADSVKGRFTISRDNAKNTVYLQMNSLKPEDTAVYYCNVKDSGWFWTQYDYWGQGTQVTVSA
Take B18: the binding result is “binds”.

B19: 3 [Sybody 3] (VHH)
VHH: QVQLVESGGGLVQAGGSLRLSCAASGFPVWAAYMFWYRQAPGKEREWVAAIGSTGWYTRYADSVKGRFTISRDNAKNTVYLQMNSLKPEDTAVYYCHVKDAGWNWWAYDYWGQGTQVTVSA
Turning to B19, the binding result is reported as “binds”.

B20: 88 (VHH)
VHH: B19 VHH with A31H, A32S, F35Y, R59T, H97N, A101Q, N104I, W105H, W106K, A107Q
B20: the binding result is listed as “binds”.

B21: 44 [Sybody 44] (VHH)
VHH: B9 VHH with A30D, R32T, W33S, R35Y, F54T, D56W, S103W, Q104Y, W105Y
For B21, the binding result is on record as “binds”.

B22: 101 (VHH)
VHH: B19 VHH with A32T, F35Y, Y57F, R59V, H97N, A101R, N104Q, W105T, W106A, A107Q
In the case of B22, the binding result was “binds”.

B23: 24 [Sybody 24] (VHH)
VHH: QVQLVESGGGSVQAGGSLRLSCAASGAIERIWYLGWFRQAPGKEREGVAALITFTGHTYYADSVKGRFTVSLDNAKNTVYLQMNSLKPEDTALYYCAAAYDGWFSPLTTRRYRYWGQGTQVTVSA
With B23, the binding result is “binds”.

B24: 19 [Sybody 19] (VHH)
VHH: QVQLVESGGGSVQAGGSLRLSCAASGNIHAINYLGWFRQAPGKEREGVAALDTWVGYTYYADSVKGRFTVSLDNAKNTVYLQMNSLKPEDTALYYCAAAEWGWQGPLKMRAYEYWGQGTQVTVSA
Consider B24, for which the binding result was “binds”.

For the origin of these results see PMC10502012, “Molecular basis of TASL recruitment by the peptide/histidine transporter 1, PHT1” (Nature Communications, 2023).
